In paper PMC8920935:

Columns and labels:
[1] = target: Escherichia coli YidC R366E/F433S, cysteine-less, with a cysteine introduced at position 405 (Escherichia coli) (UniProt P25714); assay: FRET or BRET; labelled Pf3 coat added in steps (60, 60, 150, 150, 150, 300, 300 nM; final 1.17 uM; 1 min each) to DOPC proteoliposomes with 300 nM labelled YidC; excitation 500 nm, acceptor signal at 669 nm; room temperature
[2] = target: Escherichia coli YidC, cysteine-less, with a cysteine introduced at position 405 (WT in the FRET assay) (Escherichia coli) (UniProt P25714); assay: as above

“Pf3 coat protein, fluorescently labelled at residue 48 (from UniProt P03623 1-44) (natural protein)” gave a Kd [1] of 349 nM and a Kd [2] of 241 nM.
